Laboratory results as given in the Immune Epitope Database (IEDB).

Tests used:
Experiment in all cases: IEDB peptide-MHC binding, purified MHC/competitive/radioactivity; filed as Kd, often an IC50 or EC50 that approximates it; ≥ and ≤ were set here for values at or beyond the usual limits of such assays
HLA-A*31:01 = molecular target: HLA-A*31:01
HLA-A*11:01 = molecular target: HLA-A*11:01
HLA-A*68:01 = molecular target: HLA-A*68:01
HLA-A*33:01 = molecular target: HLA-A*33:01
HLA-A*03:01 = molecular target: HLA-A*03:01
HLA-A*02:06 = conditions: source organism: Dengue virus 1 Brazil/97-11/1997
[1] = source organism: SARS coronavirus Tor2
[2] = source organism: Vaccinia virus WR
[3] = source organism: Lymphocytic choriomeningitis virus (strain Armstrong)
[4] = source organism: Mammarenavirus machupoense
[5] = source organism: Mammarenavirus lassaense
[6] = source organism: Mammarenavirus juninense

## QQWIQFMMSR
HLA-A*31:01; [1]
  Kd: 127 nM
HLA-A*11:01; [1]
  Kd: 7800 nM
HLA-A*68:01; [1]
  Kd: 6640 nM
HLA-A*33:01; [1]
  Kd: 1450 nM
HLA-A*03:01; [1]
  Kd: 12500 nM

## RASTTENAAY
HLA-A*31:01; [2]
  Kd: 2090 nM
HLA-A*11:01; [2]
  Kd: 564 nM
HLA-A*68:01; [2]
  Kd: 4630 nM
HLA-A*33:01; [2]
  Kd: ≥ 70000 nM
HLA-A*03:01; [2]
  Kd: 13400 nM

## RCHDHYLCRH
HLA-A*31:01; [3]
  Kd: 14400 nM
HLA-A*11:01; [3]
  Kd: ≥ 69700 nM
HLA-A*68:01; [3]
  Kd: ≥ 70100 nM
HLA-A*33:01; [3]
  Kd: ≥ 70000 nM
HLA-A*03:01; [3]
  Kd: ≥ 46800 nM

## RFVEELLHR
HLA-A*31:01; [2]
  Kd: 19.7 nM
HLA-A*11:01; [2]
  Kd: 3450 nM
HLA-A*68:01; [2]
  Kd: 227 nM
HLA-A*33:01; [2]
  Kd: 686 nM
HLA-A*03:01; [2]
  Kd: 2180 nM

## RSKQKIGDLR
HLA-A*31:01; [2]
  Kd: 48.3 nM
HLA-A*11:01; [2]
  Kd: 14000 nM
HLA-A*68:01; [2]
  Kd: 1300 nM
HLA-A*33:01; [2]
  Kd: 12700 nM
HLA-A*03:01; [2]
  Kd: 3830 nM

## RVPRNLTLSK
HLA-A*31:01; [1]
  Kd: 767 nM
HLA-A*11:01; [1]
  Kd: 8.33 nM
HLA-A*68:01; [1]
  Kd: 2100 nM
HLA-A*33:01; [1]
  Kd: ≥ 70000 nM
HLA-A*03:01; [1]
  Kd: 12.4 nM

## SFKLILAEY
HLA-A*31:01; [2]
  Kd: 681 nM
HLA-A*11:01; [2]
  Kd: 13500 nM
HLA-A*68:01; [2]
  Kd: ≥ 26000 nM
HLA-A*33:01; [2]
  Kd: 11700 nM
HLA-A*03:01; [2]
  Kd: ≥ 76900 nM

## SILSLETVK
HLA-A*31:01; [2]
  Kd: 2610 nM
HLA-A*11:01; [2]
  Kd: 4.15 nM
HLA-A*68:01; [2]
  Kd: 515 nM
HLA-A*33:01; [2]
  Kd: 18500 nM
HLA-A*03:01; [2]
  Kd: 24.9 nM

## SMQGAVDINR
HLA-A*31:01; [1]
  Kd: 188 nM
HLA-A*11:01; [1]
  Kd: 1160 nM
HLA-A*68:01; [1]
  Kd: 142 nM
HLA-A*33:01; [1]
  Kd: 470 nM
HLA-A*03:01; [1]
  Kd: 2290 nM

## SSSVDVDIY
HLA-A*31:01; [2]
  Kd: 2730 nM
HLA-A*11:01; [2]
  Kd: ≥ 43700 nM
HLA-A*68:01; [2]
  Kd: 2950 nM
HLA-A*33:01; [2]
  Kd: ≥ 72700 nM
HLA-A*03:01; [2]
  Kd: ≥ 65300 nM

## SSTCSAVTDR
HLA-A*31:01; [2]
  Kd: 123 nM
HLA-A*11:01; [2]
  Kd: 173 nM
HLA-A*68:01; [2]
  Kd: 87.4 nM
HLA-A*33:01; [2]
  Kd: 708 nM
HLA-A*03:01; [2]
  Kd: 11400 nM

## STIANSNIIK
HLA-A*31:01; [2]
  Kd: 1130 nM
HLA-A*11:01; [2]
  Kd: 0.545 nM
HLA-A*68:01; [2]
  Kd: 16.1 nM
HLA-A*33:01; [2]
  Kd: 19500 nM
HLA-A*03:01; [2]
  Kd: 251 nM

## TAKVIKLVK
HLA-A*31:01; [2]
  Kd: 19900 nM
HLA-A*11:01; [2]
  Kd: 985 nM
HLA-A*68:01; [2]
  Kd: 4910 nM
HLA-A*33:01; [2]
  Kd: ≥ 77700 nM
HLA-A*03:01; [2]
  Kd: ≥ 52300 nM

## TAVAKCNQNH
HLA-A*31:01; [4]
  Kd: ≥ 70000 nM
HLA-A*11:01; [4]
  Kd: ≥ 69700 nM
HLA-A*68:01; [4]
  Kd: ≥ 70100 nM
HLA-A*33:01; [4]
  Kd: ≥ 68800 nM
HLA-A*03:01; [4]
  Kd: ≥ 70000 nM

## TYLGPQFCK
HLA-A*31:01; [5]
  Kd: 5080 nM
HLA-A*11:01; [5]
  Kd: 13.3 nM
HLA-A*68:01; [5]
  Kd: 32.3 nM
HLA-A*33:01; [5]
  Kd: 310 nM
HLA-A*03:01; [5]
  Kd: 156 nM

## VFGSTMNNK
HLA-A*31:01; [1]
  Kd: 2630 nM
HLA-A*11:01; [1]
  Kd: 2510 nM
HLA-A*68:01; [1]
  Kd: 4460 nM
HLA-A*33:01; [1]
  Kd: ≥ 43700 nM
HLA-A*03:01; [1]
  Kd: 4340 nM

## VIENGILKK
HLA-A*31:01; [2]
  Kd: 12900 nM
HLA-A*11:01; [2]
  Kd: 29.6 nM
HLA-A*68:01; [2]
  Kd: 1830 nM
HLA-A*33:01; [2]
  Kd: ≥ 77700 nM
HLA-A*03:01; [2]
  Kd: 438 nM

## VIRLLIWAY
HLA-A*31:01; [2]
  Kd: 1220 nM
HLA-A*11:01; [2]
  Kd: 1930 nM
HLA-A*68:01; [2]
  Kd: 5930 nM
HLA-A*33:01; [2]
  Kd: 12400 nM
HLA-A*03:01; [2]
  Kd: 12900 nM

## VMNFIPIIY
HLA-A*31:01; [2]
  Kd: ≥ 20900 nM
HLA-A*11:01; [2]
  Kd: 60.5 nM
HLA-A*68:01; [2]
  Kd: 8850 nM
HLA-A*33:01; [2]
  Kd: ≥ 77700 nM
HLA-A*03:01; [2]
  Kd: 58.7 nM

## VSLVKKNKKR
HLA-A*31:01; [2]
  Kd: 324 nM
HLA-A*11:01; [2]
  Kd: 6450 nM
HLA-A*68:01; [2]
  Kd: ≥ 47800 nM
HLA-A*33:01; [2]
  Kd: 6890 nM
HLA-A*03:01; [2]
  Kd: ≥ 30500 nM

## VVIGLLFMI
HLA-A*02:06
  Kd: 5.61 nM

## YAKKFKTGMH
HLA-A*31:01; [6]
  Kd: ≥ 28200 nM
HLA-A*11:01; [6]
  Kd: ≥ 69700 nM
HLA-A*68:01; [6]
  Kd: ≥ 70100 nM
HLA-A*33:01; [6]
  Kd: ≥ 29200 nM
HLA-A*03:01; [6]
  Kd: ≥ 70000 nM

## YLINPNILY
HLA-A*31:01; [2]
  Kd: ≥ 77900 nM
HLA-A*11:01; [2]
  Kd: 376 nM
HLA-A*68:01; [2]
  Kd: 3240 nM
HLA-A*33:01; [2]
  Kd: ≥ 45100 nM
HLA-A*03:01; [2]
  Kd: 1520 nM

## YLLVKWIRK
HLA-A*31:01; [2]
  Kd: 285 nM
HLA-A*11:01; [2]
  Kd: 84 nM
HLA-A*68:01; [2]
  Kd: ≥ 35200 nM
HLA-A*33:01; [2]
  Kd: 5200 nM
HLA-A*03:01; [2]
  Kd: 7.5 nM

## YSRVNHAKY
HLA-A*31:01; [2]
  Kd: ≥ 73700 nM
HLA-A*11:01; [2]
  Kd: ≥ 42200 nM
HLA-A*68:01; [2]
  Kd: 1190 nM
HLA-A*33:01; [2]
  Kd: ≥ 77700 nM
HLA-A*03:01; [2]
  Kd: 1530 nM

## YTNEIIGYK
HLA-A*31:01; [1]
  Kd: 937 nM
HLA-A*11:01; [1]
  Kd: 2.56 nM
HLA-A*68:01; [1]
  Kd: 2.24 nM
HLA-A*33:01; [1]
  Kd: 414 nM
HLA-A*03:01; [1]
  Kd: 4.97 nM

## YTYDRVDIY
HLA-A*31:01; [2]
  Kd: 9370 nM
HLA-A*11:01; [2]
  Kd: 0.341 nM
HLA-A*68:01; [2]
  Kd: 1.91 nM
HLA-A*33:01; [2]
  Kd: ≥ 36600 nM
HLA-A*03:01; [2]
  Kd: 741 nM
